Assay results as given in the nanobody polyreactivity screen of Harvey et al. (2022).

Test: yeast display, Sf9 membrane polyspecificity reagent, FACS + sequencing; frameworks hold sequencing errors
Method in brief: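 Synthetic nanobody libraries on Saccharomyces cerevisiae BJ5465 were galactose-induced for 36–48 hours, stained 1 hour at 4 °C with 10% biotinylated, detergent-solubilized Sf9 membrane reagent and enriched on streptavidin microbeads. FACS then separated cells into low and high (top ~1%) gates by anti-HA (expression) and streptavidin (reagent binding) fluorescence. Genes were colony-PCR amplified, MiSeq 2 × 250 sequenced and CDR-length filtered. A clone's polyreactivity label is that of its gate of origin.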

| Sequence | polyreactivity (PSR sort gate) |
| --- | --- |
| QVQLVESGGGLVQAGGSLRLSCAASGSIFYRNALGWYRQAPGKERELVAAISSDGSTNYADSVKGRFTISRDNAKNTVYLQLNSLKPEDTAVYYCAAPWTQILDYWGQGTQVTVSS | low polyreactivity |
| QVQLVESGGGLVQAGGSLRLSCAAYGRTFLYNAMGWYRQAPGKERELVAAISSRGARTYYADSVKGRFTISRDNAKNTVYLQMNSLKPEDTAVYYCATDSYRYDGIQYLYEYYYWGQGTQVTVSS | high polyreactivity |
| QVQLVESGGGLVQAGGSLRLSCAASGSIFKSYAMGWYRQAPGKERELVAVISDSGSTYYADSVKGRFTISRDNAKNTVYLQMNSLKPEDTAVYYCRGRGRRNEYWGQGTQVTVSS | high polyreactivity |
| QVQLVESGGGLVQAGGSLRLSCAASGYILQKYAMGWYRQAPGKERELVATISGGGGSTYYADSVKGRFTISRDNAKNTVYLLMNSLKPEDTAVYYCAKEYPWLPRSYEYWGQGTQVSVSS | low polyreactivity |
| QVQLVESGGGLVPAGGSLRLSCAASGFIYWYAMGWYRQAPGKETELVAAITWSGGSTYADSVKGRFTISRDNAKNTVYLQMNCLKPEDSAVYYCAADKYSQWSSHTRVRYDYWGQGTQETVSS | low polyreactivity |
| QVQLVESGGGLVQAGGSLRLSCAASGSTLKYNALGWYRQAPGKERELVAAISTSGGNTYYADSVKGRFTISRDYAKNTVYLQMNTLKPEDTAVYYCAKVLGFYYYDYYTPFARGYWGQGTQVTVSS | low polyreactivity |
| QVQLVESGGGLVEAGGSLRLSCAASGIFRYYAMGWYRQAPGKERELVASITGGGSTYYADSVKGRFTISRDNAKNTVYLQMNSLKPEDTAVYYCNTAGAYYRWTPYYYWGQGTQVTVSS | high polyreactivity |
| QVQRVESGGGLVQAGGSLRLSCAACGSILPQYTMVWYRQAPGKERELVAAISKRGDRTYYADSVKGRFTISRDNAKNTVYLQMNSLKPEDTAVYYCAALGTGTGARSRYSVRFDYWGQGTQVTVSS | high polyreactivity |
| QVQLVESGGGLVQAGGSLRLSCAASGRTFSYNTMGWYRQAPGKVSELVAAISTGVSTYYADSVKGRFTISRDNAKNTVYLQMNSLKPEDTEVYYCARGGRPRWYPPHNYWGQGTQLTVSS | low polyreactivity |
| QVQLVESGGGLVQAGGSLRLSCAASGRIFPYYTMGWYRQAPGKERELVAAISSSGGSTYYADSVKGRFTISRDNAKNTVYLQMNSLKPEDTAVYYCNIRRHSLYGGTTTRYDYWGQGTQVTVSS | high polyreactivity |
| QVQLVESGGGLDQAGGSLRLSCAASGSTLVYNDMGWYRQAPGIEREFVAAIRSNDGSTYYADSVKGRFTISGDNAKNTVYLQMNSLKPEDTAGYYCAVVYGYPYLRGYVYGFNYWGQGTQVTVSS | low polyreactivity |
| QVQLVESGGGLVQAGGSLRLSCAASGFIFGSYTMGGYRQAPGTERELVAVITCSGSSTYYADSVKGRFTISRDNAKNTVYLQMNSLKPADTAVYYCNAVKFGGYDYWGQGTQVTVSS | high polyreactivity |
| QVQLVESGGGLVQAGGSLRLSCAASGFIFLSNGMGWYRPAPGKERELVAAITSGGNTNYADSVTGRFTISRDNAKTTVYLQMNSLKPEDTAVYYCAAYWIFITYFGYYSEYAYWGQGTQVTVSS | low polyreactivity |
| QVQLVESGGGLVQAGGSLRLSCAASGSTFAYNAMGWYRQAPGKERELVAAISWGDGITYYADSVKGRFTISRDNAKNTVYLQMNSLKPEDTAVITRDFGYWGQGTQVTVSS | low polyreactivity |
| QVQLVESGGGLVQAGGSLRLSCAASGFTFGRYAMGWYRQAPGKERELVAAISTSGGRTYYADSVKGRFTISRDNAKNTVYLQMNSLKPEDTAVYYCAAEQRRFTGYDYWGQGTQVTVSS | high polyreactivity |
| QVQLVESGGGLVQAGGSLRLSCAASGSTLTRNDIGWYRQAPGKERELVAAITFSGSDTYYADSVKGRFTISRDNAKNTVYLQMNILKPEDTAVYYCAAEYGGYSIYLFIGRYYWGQGTQVTVSS | low polyreactivity |
| QVQLVESGGGLVQAGGSLRLSCAASGRIFYRYAMGWYRQAPGKERELVAAINDGGSTYYADSVKGRFTISRDNAKNTVYLQMNSLKPEDTAVYYCNVVNEHQSDFVVPFDYNHWGQGTQVSVSS | low polyreactivity |
